For two substances, r (distance between the fluorophores, from FRET) results are on record in paper PMC3983062.

In the test the target is RRV ORF45 (R45), as expressed in RRV-infected rhesus fibroblasts (Rhesus monkey rhadinovirus (RRV), strain H26-95) (UniProt Q9J2K2). The test can be described thus: FRET or BRET; filter-based processed FRET (PFRET) on fixed RRV-infected RhF stained with labelled antibodies (Alexa488 donor, Alexa555 acceptor); regions of interest in the nuclei. (BRET reads energy transfer from a luciferase to a nearby fluorophore.)

The substance “pERK2 (phosphorylated, activated ERK2), endogenous in rhesus fibroblasts (from UniProt F7ECR3 1-360) (natural protein)” yielded a r (distance between the fluorophores, from FRET) of 4.5 nm.

“RSK2 (p90 ribosomal S6 kinase 2), endogenous in rhesus fibroblasts (natural protein)” displayed a r (distance between the fluorophores, from FRET) of 4.7 nm.
